Laboratory results as given in the RNAGym collection of RNA variant scans (doi:10.1073/pnas.2313332121).
Fewer inactive variants are shown than the library holds.

B1: TPR 5TU (parent)
chain: GGAUCUUCUCGAUCUAACAAAAAAGACAAAUCUGCCACAAAGCUUGAGAGCAUCUUCGGAUGCAGAGGCGGCAGCCUUCGGUGGCGCGAUAGCGCCAACGUUCUCAACUAUGACACGCAAAACGCGUGCUCCGUUGAAUGGAGUUUAUCAUG

Variants of: B1
Assay: polymerase ribozyme fitness, log enrichment relative to wild type (log ratio); higher = more active; in vitro selection for triplet polymerase activity
Summary of the method: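 Fitness is a logarithmic measure of how a genotype enriched relative to the wild type, with replicate averages weighted by inverse variance. The logarithm uses base 2, and enrichment came from Illumina sequencing of input and output libraries. Those libraries were PCR-built, transcribed mutants of each subunit of a heterodimeric triplet polymerase ribozyme, passed through one triplicate in vitro selection round that included frozen incubation at −7 °C, gel excision of extended constructs and streptavidin-bead capture. Genotypes were kept only if they had ≥10 input reads and ≥1 read per output.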

Variant | polymerase ribozyme fitness (log ratio)
GGAUCUUCUCGAUCUGACAAAAAAGACAAAUCUGCCACAAAGCUUGAUAGCAUCUUCGGAUGCAGAGGCGGCAGCCUUCGGUGGCGCGAUAGCGCCAACGUUCUCAACGAUGACACGCAAAACGCGUGCUCCGUUGAAUGGAGUUUAUCAUG | -3.48
GGAUCUUCUCGAUCUGACAAAAAAGACAAAUCUGCCACAAAGCUUGACAGCGUCUUCGGAUGCAGAGGCGGCAGCCUUCGGUGGCGCGAUAGCGCCAACGUUCUCAACUAUGACACGCAAAACGCGUGCUCCGUUGAAUGGAGUUUAUCAUG | -1.13
GGAUCUUCUCGAUCUGACAAAAAAGACAAAUCUGCCACAAAGCUUGAGAGCAUCUCCGGAUGCAGAGGCGGCAGCAUUCGGUGGCGCGAUAGCGCCAACGUUCUCAACUAUGACACGCAAAACGCGUGCUCCGUUGAAUGGAGUUUAUCAUG | -0.363
GGAUCUUCUCGAUCUGACAAAAAAGACAAAUCUGCCACAAAGCUUGAGAGCAACUUCGGAUGCAGAGGCGGCAGCCUUCGGUGGCGCGAUAGCGCCAACGUUCUCAACUAUGACACGCAAAACGCGUGCUCCGUUGAAUGGAGUUUAUCAUG | -1.79
GGAUCUUCUCGAUCUGACAAAAAAGACAAAUCGGCCACAAAGCUUGAGAGCAUCUUCGGAUGCAGAGGCGGCAGCCUUCGGUGGCGCGAUAGAGACAACGUUUUCAACUAUGACACGCAAGACGCGUGCUCCGUUGAAUGGAGUUUAUCAUG | ≤ -4.2
GGAUCUUCUCGAUCUGACAAAAAAGACAAAUCUGCCACAAAGCUUGAGAGCAACUGCGGAUGCAGAGGCGGCAGCCUUCGGUGGCGCGCUAGCGCUAACGUUCUCAACUACGACACGCAAAACGCGUGCUCCGUUGAAUGGAGUUUAUCAUG | ≤ -4.2
GGAUCUUCUCGAUCUGACAAAAAAGACAAAUCGGCCACCAAGCUUGAGAGCAUCUUCUGAUGCAGAGGCGGCAGCCUUCGGUGGCGCGAUAGCGCCAACGUUCUCAACUAUGACACGCAAAACGCGUGCUCCGUUGAAUGGAGUUUAUCAGG | ≤ -4.2
GGAUCUUCUCGAUCUGACAAAAAAGACAAAUCUGCCACAAAGCUUGAAAGCAUCUUGAGCUGCAGAGGCGGCAGCCUUCGGUGGCGCAAUAGCGCCAACGUUCUCAACUAUGAAACGCAAAACGCGUGCUCCGUUGAAUGAAGUUUAUCAUG | ≤ -4.2
GGAUCUUCUCGAUCUGACAAAAAAGACAAAUCUGCCACAAAGCUUAAGAGCAUCUUCGGAUGCAGAGGCGGCGGCCUUCGGUGGCGCUAUAGCACCAACGUUCUCAACUAUGAGACGCAAAACGCGUGCUCCGUUGAAUGGAGUUUAUCAUG | ≤ -4.2
GGAUCUUCUCGAUCUGACAAAAAAGACAAAUCUGCCACAAAGCAUGAGAGCAUCUUCGGAUGCAGAGGCGGCGGCCUUCGGUGGCGUGAUAGUGCCAACGUUCUCAACUAUGACACGCAAAACGCGUGCUCCGUUGAAUGGAGUUUAUCAUG | ≤ -4.2
GGAUCUUCUCGAUCUGACAAAAAAGACAAAUCUGCCACAAAGCUUUAGAGCAUCUUCGGAUGCAGAGGCGGCAGCCUUCGGUGACGCGAUAGCGCCAACGUUCUUAACUAUGACACGCAAAACGCGUGCUCCCUUGAGUGGGGUUUAUCAUG | ≤ -4.2
GGAUCUUCUCGAUCUUCCAAAAAGGACAAAUCUGCCACAAAGCUUGAGGGCAUCUUCGGAUGCAGAGGCGGCAGCAUUCGGUGGCGAGAUAGCGCCAAGGUUCUCAACUAUGACACGCAAAACGCGUGCUCCGUUGAAUGGAGUUUAUCAUG | ≤ -4.2
GGAUCUUCUCGAUCUGACAAAAAAGACAAAGCUGCCACAAAGCUUAAGAGCAUCAUCGGAUGCAGAGGCGGCAGCCUUCGGUGGCGCGAUAGCGGCAACGUUCUCAACUAUGACACGCAAAACGCGUGCUCCGUUGAAUGGAGUUUAUCAUG | ≤ -4.2
GGAUCUUCUCGAUCUUACUUAAAAGACAAAUCUGCCACAUAGCUUGAGAGCAUCUUCGGAUGCAGAGGCGGCAGCCUUCGGUGGCUCGAUAGCGCUAACGUUCUCAACUAUGACACGCAAAACGCGUGCUCCGUUGAAUGGAGUUUAUCAUG | ≤ -4.2
GGAUCUUCUCGAUCUGACAAAAAAGACAAAUCUGCCACAAAGCUUGAGAGCAUCUUCAGAUGCAGAGGCGGCAGCCUUCGGUGGCGCGAUAGCGCCAACGUUCUCAACUAUGACACGCAAAACGCGUGGUCCGUUGAAUGGAGUUUAUCAUG | -4.19
GGAUCUUCUCGAUCUUACCAAAAAGACAAAUCUGCCACAAAGCUUGAGAGCAUCUUCGGAUGCAGAGGCGGCAGCCUUCGGUGGUGCGAUAGCGCCAACGUUCUCAACUAUGACACGCAAAACGCGUGCUCCGUUGAAUGGAGUUUAUCAUG | -2.05
GGAUCUUCUCGAUCUUACUAAAAAGACAAAUCUGCCACAAAGCUUGAGAGCAUCUUCGGAUGCAGAGGCGGCAGCCUUCAGUGGCGCGAUAGCGCCAACGUUCUCAACUAUGACACGCAAAACGCGUGCUCCGUUGAAUGGAGGUUAUCAUG | -2.53
GGAUCUUCUCGAUCUGACAAAAAAGACAAAUCUGCCACAAAGCUUGAGAGCAUCUUCGGAUGCAGAGGCGGCAGCCUUCGGUGGCGCGAUAUUGCCAACGUUCUCAACUAUGACACGUAAAACGCGUGCUCCGUUGAAUGGAGUUUAUCAUG | -2.94
GGAUCUUCUCGAUCUUACAAAAAAGACAAAUCUGCCACAAAGCUUGAGAGCAUCUUCGGAUGCAGAGGCGGCAGCCUUCGGUGGCGCGAUAGCGCCAACGUUCUCAACUAUGACACGCAAAACGCGUGCUCCGUUGAAUGGAGUUUAUCAUG | -1.62
